Results published in article PMC12737490, “Beta Toxins Isolated from the Scorpion Centruroides hirsutipalpus (Scorpiones; Buthidae) Affect the Function of Sodium Channels of Mammals” (Toxins, 2025).

B1: Chirp7 (peptide)
chain: KEGYLVNHSTGCKYECFKLGDNDYCLRECRQQYGKGAGGYCYAFGCWCTHLYEQAVVWPLPKKTCN-NH2
modifications: disulfide (positions not given here); also: four disulfide bridges, pairing not given here
B2: Chirp9 (peptide)
chain: KEGYIVDYHTGCKYTCAKLGDNDYCVRECRLRYYQSAHGYCYAFACWCTHLYEAAVVWPLPNKRCK-NH2
modifications: disulfide (positions not given here); also: four disulfide bridges, pairing not given here

What was measured:
[1] = test system: CD1 strain albino mice; experiment: Toxicity and lethality tests in mice (intraperitoneal); assay type: in vivo, Mus musculus; set-up: key to Toxicity: Non-toxic: “non-toxic” when the mice exhibited normal physiological and behavioral patterns indistinguishable from the control group; Toxic: “toxic” when the animals developed signs of intoxication, such as excitability, excessive salivation, transient paralysis, breathing difficulty, diarrhea, impaired coordination or movement, or excessive tearing. These symptoms would appear after administration but fully resolve within 24 h without lasting effects; Lethal: “lethal” when the mice showed severe manifestations of intoxication, including progressive paralysis, marked respiratory distress, convulsions, or complete loss of mobility, leading to death during the observation period as a direct consequence of exposure; conditions: 20 g CD1 mice; for symptoms in affected animals / time to death after injection / lethality in murine models: 30 µg in 100 µL PBS; for lethality in murine models / Toxicity: monitored 24 h, in triplicate; for Toxicity: 30 µg of each fraction in 100 µL PBS
Method: Toxicity assays. Toxicity and lethality tests of FPLC and HPLC fractions containing the toxins were conducted on CD1 strain albino mice (Mus musculus) weighing 20 g. The mice received intraperitoneal injections of 30 µg of each fraction diluted in 100 µL of Phosphate-buffered saline (PBS), while control mice were injected with sterile water. The mice were monitored for 24 h. […] A treatment was categorized as “toxic” when the animals developed signs of intoxication, such as excitability, excessive salivation, transient paralysis, breathing difficulty, diarrhea, impaired coordination or movement, or excessive tearing. These symptoms would appear after administration but fully resolve within 24 h without lasting effects. […] The experiments were conducted in triplicate. The Bioethics Committee approved the Animal Welfare protocol used in this study (Project 413).

[2] = test system: antibody; experiment: Antibody recognition of Chirp9 compared with Cl13; assay type: binding; conditions: effect of the two amino acid differences between Chirp9 and Cl13
Excerpt: Evaluation of the recognition capability of scFvs for the toxins of C. hirsutipalpus. Surface plasmon resonance (SPR) evaluations of the recognition capability of scFvs for the toxins of C. hirsutipalpus. The toxins from C. hirsutipalpus were used to evaluate the recognition capacity of antibody fragments previously generated against Mexican scorpion toxins in a biosensor that detects molecular interactions in real time (Biacore X100, Uppsala, Sweden). The toxins Chirp7 and Chirp9 were covalently immobilized onto the surface of CM5 Chips using the amino coupling kit, achieving binding levels of 200 RUs (1 RU corresponds to a change in surface concentration of approximately one pg of bound mass per mm^2). Each pure toxin was solubilized in 10 mM 2-(N-morpholino) ethanesulfonic acid (pH 6) and bound to cell 2. Cell 1 in the sensor (without bound toxin) was used as a control. The scFvs LR, 10FG2, 11F, HV, and RAS 27 [21] were evaluated for their ability to recognize each toxin.

Row | Molecule | symptoms in affected animals [1] | time to death after injection [1] | lethality in murine models [1] | lethality in murine models ([1]; listed as FII.7) | Toxicity [1] | antibody recognition of Chirp9 versus Cl13 [2] | lethality in murine models ([1]; listed as FII.9)
1 | B1 | hyperexcitability, tremors, piloerection, hypersalivation, transient paralysis, dyspnea, motor incoordination, severe respiratory distress, and, ultimately, death | approximately 20 min | pronounced lethality | particularly lethal effects | Lethal |  | 
2 | B2 | hyperexcitability, tremors, piloerection, hypersalivation, transient paralysis, dyspnea, motor incoordination, severe respiratory distress, and, ultimately, death | approximately 20 min | pronounced lethality |  | Lethal | significantly reduce antibody recognition | particularly lethal effects
